The target in this data set is TAT-S1 (MBP-TAT-mCherry-HA-NLS-S1-KRAB) (artificial (designed)). As to the kind of experiment: EMSA; EMSA: ZBA buffer (composition not given), 0.05% NP-40, 0.1 mg/ml BSA, 10% glycerol, 35-75 pM target, 1.5 h at room temperature; pH not given. The following applies: protein: recombinant, tags: N-terminal MBP, TAT(48-57), SV40 NLS, C-terminal KRAB, label: 5'-biotin on strand 1, blunt. In general terms: In EMSA bound probe runs differently from free probe, usually more slowly.

B1: S1 target site EMSA probe (dsDNA)
DNA 1: CCTCTTCGCTATTACGCCAGCCATGCGTAGGGAGCCGCGGAACGTTCGATCGTACTCGAGTCAGGGTG
DNA 2: CACCCTGACTCGAGTACGATCGAACGTTCCGCGGCTCCCTACGCATGGCTGGCGTAATAGCGAAGAGG
Turning to B1, the Kd – broadly, the free concentration of one partner at which half of the binding sites on the other are occupied at equilibrium, for simple one-to-one binding – came out at 8 ± 1.5 nM.

These data come from publication PMC4786922, “Protein Delivery of an Artificial Transcription Factor Restores Widespread Ube3a Expression in an Angelman Syndrome Mouse Brain”.
